For this assay, the target named is T1, polypeptide translated from the polynucleotide of SEQ ID NO: 62 (human, UniProt Q05513 356-592).
T1 construct: retested as a pGBKT7 fusion in yeast AH109
T1 sequence: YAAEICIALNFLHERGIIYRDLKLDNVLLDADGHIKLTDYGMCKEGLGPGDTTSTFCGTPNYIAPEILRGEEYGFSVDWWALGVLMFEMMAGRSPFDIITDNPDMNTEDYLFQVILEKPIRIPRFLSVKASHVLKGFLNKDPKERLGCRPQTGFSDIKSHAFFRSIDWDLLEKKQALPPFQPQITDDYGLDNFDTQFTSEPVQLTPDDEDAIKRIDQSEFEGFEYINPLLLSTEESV
In words: yeast two-hybrid screen, LexA system, histidine and LacZ reporters, human kidney library. From the text:
Then, the Human kidney […] LexA library (manufactured by Clontech Co., Ltd.) was introduced to the above-described strain and 10⁶ colonies were screened. At the first screening, a histidine-deficient medium was used and about 200 colonies were selected based on the expression of a histidine gene, which was a reporter of the interaction. At the second screening, 31 colonies were obtained based on the expression of LacZ, which was another reporter of the interaction. Finally, 31 clones each of which had been confirmed to surely have two kinds of reporter activities were selected. The above procedures were carried out on the basis of protocols of the yeast two-hybrid method from Invitrogen Co., Ltd. and Clontech Co., Ltd.
The library vectors were recovered from the yeast colonies selected as described above, and the nucleotide sequences were analyzed using the DNA sequencer (the same as above). The nucleotide sequences are shown in SEQ ID NOS: 33 to 63 in the Sequence Listing.

Ends that are not written are not given here.

B1: cytoplasmic domain of RAGE (receptor for advanced glycation endproduct) (receptor, UniProt Q15109 364-404, looked up)
chain: QRRQRRGEERKAPENQEEEEERAELNQSEEPEAGESSTGGP
modifications: not fully specified
notes: domain: cytoplasmic domain; also called RAGECD; RAGECD fragments
For B1, the binding result is “binds”.

The values are drawn from US20040210042A1 (published 2004).
